# Source: patent publication US20180326085A1 (Merck KGaA, published 2018)
# Columns and labels:
# [1] = molecular target: T1, EGFR on cells (human, UniProt P00533); test: flow cytometry, MKN-45 cells (c-MET+++ EGFR++)
# T1 construct: endogenous receptor on the cell surface; for A549 cells m5 is used; also called on NCI-H441, EBC-1, A431, MKN-45, HepG2 or T47D cells (cell line under assay)
# [2] = molecular target: T1, EGFR on cells; test: flow cytometry, EBC-1 cells (c-MET+++ EGFR++)
# [3] = molecular target: T1, EGFR on cells; test: flow cytometry, HepG2 cells (c-MET+ EGFR+)
# [4] = molecular target: T2, EGFR (soluble extracellular domain) (human, UniProt P00533); test: BLI (Octet), antibody on anti-human Fc biosensors, soluble EGFR ECD as analyte
# T2 construct: soluble extracellular domain; also called Human EGFR extracellular domain, R&D Systems 1095-ER
# [5] = molecular target: T3, EGFR (epidermal growth factor receptor) on A549 cells (human, UniProt P00533 25-1210); test: flow cytometry, A549 cells (c-MET+ EGFR++)
# T3 construct: whole, on cells; Endogenous receptor of A549 cells; phosphorylation read out in cell lysates
# [6] = molecular target: T1, EGFR on cells; test: flow cytometry, A431 cells (c-MET+ EGFR+++)
# [7] = molecular target: T4, c-MET on cells (human, UniProt P08581); test: flow cytometry, SK-MEL2 cells (c-MET+ EGFR-)
# T4 construct: endogenous receptor on the cell surface; for A549 cells m4 is used; also called HGFR; on NCI-H441, EBC-1, A431, MKN-45, SK-MEL2 or HepG2 cells (cell line under assay)
# [8] = molecular target: T5, c-MET and EGFR co-expressed on cells (human, UniProt P08581;P00533); test: flow cytometry, MKN-45 cells (c-MET+++ EGFR++)
# T5 construct: endogenous receptor on the cell surface; not a complex: two separate receptors on the same cell; used as target only for bispecific c-MET x EGFR molecules, whose cell staining cannot be split between the two arms; also called cells that carry both receptors: NCI-H441, EBC-1, A431, MKN-45, A549, HepG2 (cell line under assay)
# [9] = molecular target: T5, c-MET and EGFR co-expressed on cells; test: flow cytometry, EBC-1 cells (c-MET+++ EGFR++)
# [10] = molecular target: T5, c-MET and EGFR co-expressed on cells; test: flow cytometry, HepG2 cells (c-MET+ EGFR+)
# [11] = molecular target: T5, c-MET and EGFR co-expressed on cells; test: flow cytometry on NCI-H441 cells (express c-MET and EGFR), FITC anti-human Fc, n=3
# [12] = molecular target: T5, c-MET and EGFR co-expressed on cells; test: flow cytometry, A549 cells (c-MET+ EGFR++)
# [13] = molecular target: T5, c-MET and EGFR co-expressed on cells; test: flow cytometry, A431 cells (c-MET+ EGFR+++)
# [14] = molecular target: T6, biotinylated recombinant human c-MET ECD (HGFR extracellular domain) (human, UniProt P08581 25-932, biotinylated (sites not given)); test: BLI (Octet), antibody on anti-human Fc biosensors, soluble c-MET ECD as analyte
# T6 construct: extracellular domain; also called human c-MET ECD-His
# [15] = molecular target: T4, c-MET on cells; test: flow cytometry, MKN-45 cells (c-MET+++ EGFR++)
# [16] = molecular target: T4, c-MET on cells; test: flow cytometry, EBC-1 cells (c-MET+++ EGFR++)
# [17] = molecular target: T4, c-MET on cells; test: flow cytometry, HepG2 cells (c-MET+ EGFR+)
# [18] = molecular target: T7, c-MET (hepatocyte growth factor receptor) on A549 cells (human, UniProt P08581 25-1390); test: flow cytometry, A549 cells (c-MET+ EGFR++)
# T7 construct: whole, on cells; Endogenous receptor of A549 cells; phosphorylation read out in cell lysates; also called HGFR
# [19] = molecular target: T4, c-MET on cells; test: flow cytometry, A431 cells (c-MET+ EGFR+++)
# [20] = molecular target: T6, biotinylated recombinant human c-MET …; test: HGF competition ELISA: HGF on the plate, biotinylated c-MET ECD pre-incubated with the antibody; blocked ligand HGF
# [21] = molecular target: T4, c-MET on cells; test: flow cytometry on NCI-H441 cells (express c-MET and EGFR), FITC anti-human Fc, n=3
MFI at 100 nM [1],MFI at 100 nM [2],MFI at 100 nM [3],Kd [4],koff [4],kon [4],MFI at 100 nM [5],MFI at 100 nM [6],MFI at 100 nM [7],binding result [7],Kd [14],koff [14],kon [14],MFI at 100 nM [15],MFI at 100 nM [16],MFI at 100 nM [17],MFI at 100 nM [18],MFI at 100 nM [19],Binder,further results
83,137,22,220 nM,0.14 s⁻¹,610000 M⁻¹ s⁻¹,91,1260,17,no binding (tested: 100 nM),–,–,–,–,–,–,–,–,"oa 225-L (antibody, V domains shown, one-armed (monovalent) anti-EGFR SEED molecule) VH: EVQLVQSGAEVKKPGASVKVSCKASGFSLTNYGVHWMRQAPGQGLEWIGVIWRGGNTDYNTPFTSRVTITSDKSTSTAYMELSSLRSEDTAVYYCARALTYYDYEFAYWGQGTLVTVSS VL: DIQMTQSPSSLSASVGDRVTITCRASQSIGTNIHWYQQKPGKAPKLLIKYASESISGVPSRFSGSGYGTDFTLTISSLQPEDVATYYCQQNNNWPTTFGQGTKVEIK",–
–,–,–,0.12 nM,0.00039 s⁻¹,3.3e+06 M⁻¹ s⁻¹,–,–,164,–,0.12 nM,0.00039 s⁻¹,3.3e+06 M⁻¹ s⁻¹,–,–,–,–,–,"CS06x225-H (bispecific c-MET x EGFR SEEDbody) (bispecific antibody, V domains shown, The rest is a SEEDbody: IgG1 hinge-CH2-SEED CH3 (AG/GA)) VH 1: QVQLQQSGAEVKKPGSSAKVSCKASGGTFSSNAISWVRQAPGQGLEWMGGIIPIFGTAIYAQKFQGRVTITADESTSTAYMELSSLRSEDTAVYYCARDQRGYYYYYYYGMDVWGQGTTVTVSS VL 1: QLVLTQSPSVSVAPGKTARITCGGNNIRNVGVHWYQKKPGQAPILVVYDDDDRPSGVPERFSGSNSGNTATLTISRVEAGDEADYYCQVWDSATDQRVFGGGTKLTVLGQPKAG VH 2: EVQLVQSGAEVKKPGASVKVSCKASGFSLTNYGVHWMRQAPGQGLEWIGVIWSGGNTDYNTPFTSRVTITSDKSTSTAYMELSSLRSEDTAVYYCARALDYYDYEFAYWGQGTLVTVSS VL 2: DIQMTQSPSSLSASVGDRVTITCRASQSIGTNIHWYQQKPGKAPKLLIKYASESISGVPSRFSGSGYGTDFTLTISSLQPEDVATYYCQQNNEWPNTFGQGTKVEIK",MFI at 100 nM [8]: 1550; MFI at 100 nM [9]: 1560; MFI at 100 nM [10]: 198; EC50 (read off the curve) [11]: ~0.3 nM; MFI at 100 nM [12]: 292; MFI at 100 nM [13]: 1860
–,–,–,0.15 nM,0.00053 s⁻¹,3.5e+06 M⁻¹ s⁻¹,–,–,222,–,0.36 nM,0.00015 s⁻¹,400000 M⁻¹ s⁻¹,–,–,–,–,–,"B10v5x225-H (bispecific c-MET x EGFR SEEDbody) (bispecific antibody, V domains shown, hu225-H); SEEDbody format (IgG1 hinge-CH2-SEED CH3)) VH 1: not shown VL 1: EPVLTQPPSVSVAPGETATIPCGGDSLGSKIVHWYQQRPGQAPLLVVYDDAARPSGIPERFSGSKSGTTATLTISSVEAGDEADYFCQVYDYHSDVEVFGGGTKLTVLGQPKAA VH 2: EVQLVQSGAEVKKPGASVKVSCKASGFSLTNYGVHWMRQAPGQGLEWIGVIWSGGNTDYNTPFTSRVTITSDKSTSTAYMELSSLRSEDTAVYYCARALDYYDYEFAYWGQGTLVTVSS VL 2: DIQMTQSPSSLSASVGDRVTITCRASQSIGTNIHWYQQKPGKAPKLLIKYASESISGVPSRFSGSGYGTDFTLTISSLQPEDVATYYCQQNNEWPNTFGQGTKVEIK",MFI at 100 nM [8]: 1330; MFI at 100 nM [9]: 2060; MFI at 100 nM [10]: 352; EC50 (read off the curve) [11]: ~0.5 nM; MFI at 100 nM [12]: 335; MFI at 100 nM [13]: 1760
144,189,40,4.4 nM,0.016 s⁻¹,3.7e+06 M⁻¹ s⁻¹,138,1500,19,no binding (tested: 100 nM),–,–,–,–,–,–,–,–,"oa225-M (antibody, V domains shown, one-armed (monovalent) anti-EGFR SEED molecule) VH: EVQLVQSGAEVKKPGASVKVSCKASGFSLTNYGVHWMRQAPGQGLEWIGVIWSGGNTDYNTPFTSRVTITSDKSTSTAYMELSSLRSEDTAVYYCARALTYYDYEFAYWGQGTLVTVSS VL: DIQMTQSPSSLSASVGDRVTITCRASQSIGTNIHWYQQKPGKAPKLLIKYASESISGVPSRFSGSGYGTDFTLTISSLQPEDVATYYCQQNYNWPTTFGQGTKVEIK",–
–,–,–,–,–,–,–,–,39,–,12 nM,0.0012 s⁻¹,100000 M⁻¹ s⁻¹,916,952,69,130,103,"oa B10 (antibody, V domains shown, one-armed (monovalent) anti-c-MET SEED molecule; also called one-armed B10) VH: not shown VL: QSVLTQPPSTSGTPGQRVTISCFGSSSNVGVNTVNWYRQLPGTAPKLLIYDNNLRPSGVPERFSGSKSGTSASLAITGLQAEDEGDYYCQSYDSSLSDVVFGGGTKLTVLG",–
184,212,50,22 nM,0.012 s⁻¹,530000 M⁻¹ s⁻¹,170,1150,17,no binding (tested: 100 nM),–,–,–,–,–,–,–,–,"oa 425 (antibody, V domains shown, one-armed (monovalent) anti-EGFR SEED molecule) VH: QVQLVQSGAEVKKPGASVKVSCKASGYTFTSHWMHWVRQAPGQGLEWIGEFNPSNGRTNYNEKFKSKATMTVDTSTNTAYMELSSLRSEDTAVYYCASRDYDYDGRYFDYWGQGTLVTVSS VL: DIQMTQSPSSLSASVGDRVTITCSASSSVTYMYWYQQKPGKAPKLLIYDTSNLASGVPSRFSGSGSGTDYTFTISSLQPEDIATYYCQQWSSHIFTFGQGTKVEIKR",–
–,–,–,–,–,–,–,–,213,–,0.19 nM,0.00021 s⁻¹,1.1e+06 M⁻¹ s⁻¹,1490,2630,296,147,37,"oa CS06 (antibody, V domains shown, one-armed (monovalent) anti-c-MET SEED molecule; also called one-armed CS06) VH: QVQLQQSGAEVKKPGSSAKVSCKASGGTFSSNAISWVRQAPGQGLEWMGGIIPIFGTAIYAQKFQGRVTITADESTSTAYMELSSLRSEDTAVYYCARDQRGYYYYYYYGMDVWGQGTTVTVSS VL: QLVLTQSPSVSVAPGKTARITCGGNNIRNVGVHWYQKKPGQAPILVVYDDDDRPSGVPERFSGSNSGNTATLTISRVEAGDEADYYCQVWDSATDQRVFGGGTKLTVLG",IC50 (read off the curve) [20]: ~8 nM; EC50 (read off the curve) [21]: ~0.3 nM
–,–,–,–,–,–,–,–,272,–,0.38 nM,0.00016 s⁻¹,400000 M⁻¹ s⁻¹,1500,2310,399,91,49,"oa B10v5 (antibody, V domains shown, one-armed (monovalent) anti-c-MET SEED molecule; also called one-armed B10v5) VH: not shown VL: EPVLTQPPSVSVAPGETATIPCGGDSLGSKIVHWYQQRPGQAPLLVVYDDAARPSGIPERFSGSKSGTTATLTISSVEAGDEADYFCQVYDYHSDVEVFGGGTKLTVLG",IC50 (read off the curve) [20]: ~6 nM; EC50 (read off the curve) [21]: ~1 nM
